Data taken from PMC4792069.

Molecular target: LAP-tagged hMps1 (LAP-Mps1), stably expressed from a BAC (human) (UniProt P33981)
Assay: fluorescence cross-correlation spectroscopy

Chain of UniProt P33981 (P33981 whole entry): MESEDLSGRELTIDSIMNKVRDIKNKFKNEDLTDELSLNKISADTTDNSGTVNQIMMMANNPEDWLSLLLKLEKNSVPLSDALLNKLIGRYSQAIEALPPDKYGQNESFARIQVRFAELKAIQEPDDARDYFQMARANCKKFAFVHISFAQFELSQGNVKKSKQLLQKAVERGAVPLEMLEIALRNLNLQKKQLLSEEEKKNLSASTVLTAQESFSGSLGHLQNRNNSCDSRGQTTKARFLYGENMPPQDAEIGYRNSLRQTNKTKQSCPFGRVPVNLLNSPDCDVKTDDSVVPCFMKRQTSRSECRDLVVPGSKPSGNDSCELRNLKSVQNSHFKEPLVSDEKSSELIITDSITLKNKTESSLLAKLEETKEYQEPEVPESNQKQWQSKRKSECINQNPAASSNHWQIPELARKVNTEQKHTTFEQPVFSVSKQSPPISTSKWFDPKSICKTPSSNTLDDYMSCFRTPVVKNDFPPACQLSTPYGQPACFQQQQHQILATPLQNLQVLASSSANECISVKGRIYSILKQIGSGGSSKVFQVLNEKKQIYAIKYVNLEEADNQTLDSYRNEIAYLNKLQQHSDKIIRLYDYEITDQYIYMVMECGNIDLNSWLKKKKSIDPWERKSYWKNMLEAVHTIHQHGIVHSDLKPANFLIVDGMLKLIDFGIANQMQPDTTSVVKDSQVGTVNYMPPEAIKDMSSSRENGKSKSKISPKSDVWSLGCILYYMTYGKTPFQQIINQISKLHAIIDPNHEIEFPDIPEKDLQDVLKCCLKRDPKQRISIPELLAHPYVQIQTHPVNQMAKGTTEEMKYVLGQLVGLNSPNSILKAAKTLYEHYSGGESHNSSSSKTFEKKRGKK

- normalized cross-correlation (FCCS): 12.4%
Substance: mCherry-tagged ARHGEF17 (ARHGEF17-mCherry), Q96PE2 1-2063
